This is an account of results in patent US20050106160A1.

Where “and” joins values, the source holds several entries; their conditions need not be identical. Equal values may be shown once. Read-outs that look alike come from different tables or passages of the source.

The target in assay [1] is cell surface associated CCR5 (CF2Th-CCR5 cells) (UniProt P51681). In words: flow cytometry on CF2Th-CCR5 cells, anti-CCR5 mAb 5C7, cells preincubated with sCD4 (1 µg/ml). Background: Flow cytometry measures light scatter and fluorescence of single cells or particles in a stream.
Assay [2] shares this target.
Assay [3] shares this target. Briefly: flow cytometry on CF2Th-CCR5 cells, anti-CCR5 mAb 5C7, no ligand, background subtracted.
For assay [4] the target is unchanged. In words: flow cytometry on CF2Th-CCR5 cells, anti-CCR5 mAb 5C7, cells preincubated with gp140 + sCD4.

Sequence of UniProt P51681 (P51681 whole entry): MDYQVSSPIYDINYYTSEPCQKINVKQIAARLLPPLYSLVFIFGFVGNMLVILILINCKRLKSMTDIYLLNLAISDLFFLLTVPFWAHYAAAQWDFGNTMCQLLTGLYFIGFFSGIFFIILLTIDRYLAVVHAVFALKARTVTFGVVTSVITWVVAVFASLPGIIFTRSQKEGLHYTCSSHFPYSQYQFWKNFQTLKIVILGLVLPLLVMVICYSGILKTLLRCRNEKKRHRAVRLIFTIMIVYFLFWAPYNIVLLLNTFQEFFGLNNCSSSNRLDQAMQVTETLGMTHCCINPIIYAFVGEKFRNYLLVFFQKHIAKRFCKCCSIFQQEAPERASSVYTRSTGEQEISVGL

Regarding anti-CCR5 mAb 5C7 (antibody), the geometric mean of fluorescence intensity (arbitrary units) is 1300 in assay [1]; 1200 and 1100 in assay [2]; 1100 in assay [3]; 370 in assay [4].

“two-domain soluble CD4 (sCD4) (from UniProt P01730 26-208) (receptor)” returned a geometric mean of fluorescence intensity (arbitrary units) in assay [2] of 20.
